Assay results from patent US20030143697A1.

T1: gp130 on PC12D cells (UniProt P40190)
T1 sequence (looked up): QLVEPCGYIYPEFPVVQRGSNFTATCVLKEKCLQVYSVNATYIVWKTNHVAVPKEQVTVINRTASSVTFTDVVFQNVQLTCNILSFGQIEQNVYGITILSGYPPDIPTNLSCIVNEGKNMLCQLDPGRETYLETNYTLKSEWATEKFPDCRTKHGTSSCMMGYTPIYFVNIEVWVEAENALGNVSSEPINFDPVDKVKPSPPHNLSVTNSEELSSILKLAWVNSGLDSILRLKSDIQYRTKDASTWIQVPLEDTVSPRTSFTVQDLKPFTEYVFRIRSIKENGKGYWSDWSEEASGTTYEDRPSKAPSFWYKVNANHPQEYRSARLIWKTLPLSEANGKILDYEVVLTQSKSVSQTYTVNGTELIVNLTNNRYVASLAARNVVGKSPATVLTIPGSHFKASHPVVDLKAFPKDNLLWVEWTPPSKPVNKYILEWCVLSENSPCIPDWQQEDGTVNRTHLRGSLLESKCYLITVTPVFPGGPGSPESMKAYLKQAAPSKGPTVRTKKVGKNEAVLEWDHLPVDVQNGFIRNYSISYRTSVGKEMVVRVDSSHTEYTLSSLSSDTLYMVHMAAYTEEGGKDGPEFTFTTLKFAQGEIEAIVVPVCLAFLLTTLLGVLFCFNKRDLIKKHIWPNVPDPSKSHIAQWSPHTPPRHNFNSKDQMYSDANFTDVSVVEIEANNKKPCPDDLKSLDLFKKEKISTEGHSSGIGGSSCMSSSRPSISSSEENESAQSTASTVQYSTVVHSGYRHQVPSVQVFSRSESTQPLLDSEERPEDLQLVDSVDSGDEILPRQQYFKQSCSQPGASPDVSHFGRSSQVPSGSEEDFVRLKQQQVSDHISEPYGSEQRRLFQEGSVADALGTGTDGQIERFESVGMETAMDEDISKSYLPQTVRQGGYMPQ

B1: Rat CNTF (ligand, UniProt P20294 1-200, looked up)
chain: MAFAEQTPLTLHRRDLCSRSIWLARKIRSDLTALMESYVKHQGLNKNINLDSVDGVPVASTDRWSEMTEAERLQENLQAYRTFQGMLTKLLEDQRVHFTPTEGDFHQAIHTLMLQVSAFAYQLEELMVLLEQKIPENEADGMPATVGDGGLFEKKLWGLKVLQELSQWTVRSIHDLRVISSHQMGISALESHYGAKDKQM
B2: anti-IL-6 monoclonal neutralizing antibody B-E8 (antibody, from another filing, V domains shown)
VH: QVTLKESGPGILKPSQTLSLTCSFSGFSLSTSGMGVGWIRQPSGKGLEWLAHIWWDDDKYYNPSLKSQLTISKDTSRNQVFLKITSVDTADTATYYCARSYDDYLYYALDYWGQGTSVTVSS
VL: DIVMTQSPATLSVTPGDRVSLSCRASQSISDYLHWYQQKSHESPRLLIKSVSQSISGIPSRFSGSGSGSDFTLSINSVEPEDVGVYYCQNGHSFPLTFGAGTKLELK

How the values were obtained:
[1] = target: recombinant human IL-1 (human); experiment: cell-based or functional assay
human IL-4 (human) = human IL-4 (human) (UniProt P05112); experiment: cell-based or functional assay
Sequence of human IL-4 (human) (P05112 25-153 limits assumed): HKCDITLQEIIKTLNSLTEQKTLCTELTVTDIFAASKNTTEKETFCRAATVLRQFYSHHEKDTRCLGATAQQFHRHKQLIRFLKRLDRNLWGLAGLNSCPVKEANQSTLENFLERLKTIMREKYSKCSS

human IL-13 (human) = human IL-13 (human) (UniProt P35225); experiment: cell-based or functional assay
Sequence of human IL-13 (human) (P35225 35-146 limits assumed): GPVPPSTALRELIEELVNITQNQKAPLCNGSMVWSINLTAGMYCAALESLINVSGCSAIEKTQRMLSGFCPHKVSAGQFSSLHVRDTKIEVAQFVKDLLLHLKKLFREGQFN

human IL-6 (human) [2] = target: human IL-6 (human) (UniProt P05231); experiment: cell-based or functional assay
Sequence of human IL-6 (human) (P05231 30-212 limits assumed): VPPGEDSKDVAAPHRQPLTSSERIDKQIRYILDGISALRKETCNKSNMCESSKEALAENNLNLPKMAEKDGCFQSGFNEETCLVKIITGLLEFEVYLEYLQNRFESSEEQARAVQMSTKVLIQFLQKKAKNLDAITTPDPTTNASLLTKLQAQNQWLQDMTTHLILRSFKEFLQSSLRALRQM

gp130 on PC12D cells = target: T1, gp130 on PC12D cells; experiment: cell-based or functional assay
human IL-6 (human) [3] = target: human IL-6 (human) (UniProt P05231); experiment: dissociation of 20 pM 125I-IL-6 from 500 pM mAb B-E8 after a 1000-fold excess of cold IL-6; Protein G-Sepharose precipitation
human IL-6 (human) [4] = target: human IL-6 (human) (UniProt P05231); experiment: cell-based or functional assay; remark: listed apart in the source

| Molecule | TF1 bioassay (MTS); IL-4 concentration at which growth is inhibited by 50% with 10 nM Trap (human IL-4 (human)) [nM] | TF1 bioassay (MTS); highest IL-4 concentration whose growth effect is blocked by 10 nM Trap (human IL-4 (human)) [nM] | TF1 bioassay (MTS); IL-13 concentration at which growth is inhibited by 50% with 10 nM Trap (human IL-13 (human)) [nM] | TF1 bioassay (MTS); highest IL-13 concentration whose growth effect is blocked by 10 nM Trap (human IL-13 (human)) [nM] | also measured |
| --- | --- | --- | --- | --- | --- |
| IL-1-RI.Fc (from UniProt P14778 18-336) (Fc fusion) |  |  |  |  | IL-1-dependent production of IL-6 by MRC5 cells; highest IL-1 concentration blocked [1]: 10 to 20 pM |
| IL-4Rα.IL-13Rα1.Fc (Fc fusion) | 3 to 4 | 1 | 4 to 5 | 2 |  |
| IL-13Rα1.IL-4Rα.Fc (Fc fusion) | 3 to 4 | 1 | 4 to 5 | 2 |  |
| gp130-Fc•CNTFRα-Fc ligand Trap (Fc fusion) |  |  |  |  | IL-6-dependent proliferation of XG-1 cells (MTT assay) (fold molar excess over IL-6) (human IL-6 (human) [2]): 1000 |
| B1 |  |  |  |  | tyrosine phosphorylation of gp130 induced by IL-6 and sIL-6Rα in PC12D cells (gp130 on PC12D cells): 8 nM; tyrosine phosphorylation of gp130 induced by IL-6 in PC12D cells (anti-gp130 immunoprecipitation, anti-phosphotyrosine immunoblot) (gp130 on PC12D cells): 2 nM |
| B2 |  |  |  |  | percent of the initial counts of 125I-IL-6 still bound after three days (human IL-6 (human) [3]): < 5%; IL-6-dependent proliferation of XG-1 cells (MTT assay, 50 pg/ml IL-6) (fold molar excess) (human IL-6 (human) [4]): 10 |
